This is an account of results in paper PMC9638933.

For data set [1], the target named is Mycobacterium tuberculosis Kucore (entire C-terminus removed) (M. tuberculosis) (UniProt P9WKD9). The data set is described as follows: BLI; biotinylated Ku protein (25 ug/ml) loaded on streptavidin biosensors as ligand; 12.5 ug/ml LIG or POL as analyte; 37 C, 1000 rpm; 1x kinetics buffer (0.1% BSA, 0.02% Tween-20, 0.05% sodium azide in PBS); association 300 s, dissociation 300 s; grouped global fit; n = 4 technical replicates. On the technique in general: In BLI a coated tip is dipped into the sample, and binding shifts an interference pattern.

Data set [2] concerns the target Mycobacterium tuberculosis Kumin (extended C-terminus removed) (M. tuberculosis) (UniProt P9WKD9). The data set is described as above.
Data set [3] has as its target wildtype Ku (KuWT), Mycobacterium tuberculosis (M. tuberculosis) (UniProt P9WKD9). The data set is described as follows: BLI; Octet RED96, 37°C, 1000 rpm; biotinylated Ku (25 ug/ml) loaded on streptavidin biosensors; LigD, LIG or POL as analyte (12.5 ug/ml), 300 s association, 300 s dissociation; 1x kinetics buffer (0.1% BSA, 0.02% Tween-20, 0.05% sodium azide in PBS); grouped global fit.

Data set [4] concerns the molecule itself. The data set is described as follows: SEC-MALS; 50 uM protein; 50 mM HEPES pH 8.0, 1 mM EDTA, 200 mM NaCl; Superdex 200 Increase 10/300 GL.
Data set [5] deals with T1, LigD (wildtype), Mycobacterium tuberculosis (M. tuberculosis, UniProt P9WNV3 1-759).
T1 construct: The His tag is TEV-cleavable; also called wildtype LigD
T1 sequence (P9WNV3 whole entry): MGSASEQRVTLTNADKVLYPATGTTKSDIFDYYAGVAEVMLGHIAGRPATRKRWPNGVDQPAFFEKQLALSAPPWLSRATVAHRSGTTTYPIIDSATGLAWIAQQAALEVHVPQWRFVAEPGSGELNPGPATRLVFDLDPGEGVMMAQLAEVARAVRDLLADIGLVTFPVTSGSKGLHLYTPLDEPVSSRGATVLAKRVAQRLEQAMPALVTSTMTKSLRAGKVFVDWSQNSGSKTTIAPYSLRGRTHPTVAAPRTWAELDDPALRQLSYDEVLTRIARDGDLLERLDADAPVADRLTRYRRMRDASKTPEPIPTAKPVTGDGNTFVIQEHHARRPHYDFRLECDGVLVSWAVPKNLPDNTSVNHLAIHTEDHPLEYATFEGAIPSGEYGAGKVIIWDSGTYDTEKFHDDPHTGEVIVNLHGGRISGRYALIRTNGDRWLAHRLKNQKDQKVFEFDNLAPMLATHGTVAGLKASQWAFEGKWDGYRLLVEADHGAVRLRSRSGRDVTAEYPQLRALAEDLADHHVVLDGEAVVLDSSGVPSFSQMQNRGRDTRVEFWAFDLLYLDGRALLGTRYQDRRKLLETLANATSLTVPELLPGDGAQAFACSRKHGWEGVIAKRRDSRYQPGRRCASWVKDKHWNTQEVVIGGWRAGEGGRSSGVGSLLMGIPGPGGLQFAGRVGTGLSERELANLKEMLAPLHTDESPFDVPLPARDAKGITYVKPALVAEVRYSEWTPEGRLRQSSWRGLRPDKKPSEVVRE
The data set is described as follows: BLI; Octet RED96, 37°C, 1000 rpm; biotinylated Ku (25 ug/ml) loaded on streptavidin biosensors; LigD, LIG or POL as analyte (12.5 ug/ml), 300 s association, 300 s dissociation; 1x kinetics buffer (0.1% BSA, 0.02% Tween-20, 0.05% sodium azide in PBS); grouped global fit. Particulars: both partners purified.

Data set [6] deals with the molecule itself. The data set is described as follows: SEC-MALS; 50 uM protein in 50 mM HEPES pH 8.0, 1 mM EDTA, 200 mM NaCl; Superdex 200 Increase 10/300 GL; MiniDAWN and Optilab. A general note: Size exclusion chromatography separates by hydrodynamic size, large species first.

Consider “ligase domain of Mycobacterium tuberculosis LigD (domain or fragment)”, for which the Kd – broadly, the concentration at which binding is half-saturated – came to 274 nM in data set [1] and 571 nM in data set [2].
As to “LigD polymerase domain (POL), Mycobacterium tuberculosis (domain or fragment)”, the Kd in data set [3] worked out at 52.7 nM.
On the same count and under the same terms, next, “LigD ligase domain (LIG), Mycobacterium tuberculosis (domain or fragment)”: 81.4 nM.
Turning to “polymerase domain of Mycobacterium tuberculosis LigD (domain or fragment)”, the Kd was found to be 291 nM in data set [1] and 774 nM in data set [2].

B1: Mycobacterium tuberculosis Ku L251A (natural protein)
chain: MRAIWTGSIAFGLVNVPVKVYSATADHDIRFHQVHAKDNGRIRYKRVCEACGEVVDYRDLARAYESGDGQMVAITDDDIASLPEERSREIEVLEFVPAADVDPMMFDRSYFLEPDSKSSKSYVLLAKTLAETDRMAIVHFTLRNKTRLAALRVKDFGKREVMMVHTLLWPDEIRDPDFPVLDQKVEIKPAELKMAGQVVDSMADDFNPDRYHDTYQEQLQELIDTKLEGGQAFTAEDQPRLLDEPEDVSDALAKLEASVKARSKANSNVPTPP
B1: in data set [4], the stoichiometry N – broadly, the number of molecules, sites or subunits per partner or assembly – stood at 2.

B2: Mycobacterium tuberculosis Ku D247A (natural protein)
chain: MRAIWTGSIAFGLVNVPVKVYSATADHDIRFHQVHAKDNGRIRYKRVCEACGEVVDYRDLARAYESGDGQMVAITDDDIASLPEERSREIEVLEFVPAADVDPMMFDRSYFLEPDSKSSKSYVLLAKTLAETDRMAIVHFTLRNKTRLAALRVKDFGKREVMMVHTLLWPDEIRDPDFPVLDQKVEIKPAELKMAGQVVDSMADDFNPDRYHDTYQEQLQELIDTKLEGGQAFTAEDQPRLLDEPEAVSDLLAKLEASVKARSKANSNVPTPP
notes: The theoretical MW of 33.7 kDa equals that of KuWT
Regarding B2, the “stoichiometry N” value in data set [4] was 2.

B3: Ku D247A (M. tuberculosis) (natural protein)
chain: MRAIWTGSIAFGLVNVPVKVYSATADHDIRFHQVHAKDNGRIRYKRVCEACGEVVDYRDLARAYESGDGQMVAITDDDIASLPEERSREIEVLEFVPAADVDPMMFDRSYFLEPDSKSSKSYVLLAKTLAETDRMAIVHFTLRNKTRLAALRVKDFGKREVMMVHTLLWPDEIRDPDFPVLDQKVEIKPAELKMAGQVVDSMADDFNPDRYHDTYQEQLQELIDTKLEGGQAFTAEDQPRLLDEPEAVSDLLAKLEASVKARSKANSNVPTPP
modifications: biotinylated with NHS-LC-Biotin for BLI only
As for B3, the Kd in data set [5] is 189 nM. Also, in data set [6], the “stoichiometry N” value was 2.

B4: Ku R262A (M. tuberculosis) (natural protein)
chain: MRAIWTGSIAFGLVNVPVKVYSATADHDIRFHQVHAKDNGRIRYKRVCEACGEVVDYRDLARAYESGDGQMVAITDDDIASLPEERSREIEVLEFVPAADVDPMMFDRSYFLEPDSKSSKSYVLLAKTLAETDRMAIVHFTLRNKTRLAALRVKDFGKREVMMVHTLLWPDEIRDPDFPVLDQKVEIKPAELKMAGQVVDSMADDFNPDRYHDTYQEQLQELIDTKLEGGQAFTAEDQPRLLDEPEDVSDLLAKLEASVKAASKANSNVPTPP
modifications: biotinylated with NHS-LC-Biotin for BLI only
B4 yielded a dissociation constant Kd in data set [5] of 125 nM. Also, the “stoichiometry N” value in data set [6] was 2.

B5: Ku D250A (M. tuberculosis) (natural protein)
chain: MRAIWTGSIAFGLVNVPVKVYSATADHDIRFHQVHAKDNGRIRYKRVCEACGEVVDYRDLARAYESGDGQMVAITDDDIASLPEERSREIEVLEFVPAADVDPMMFDRSYFLEPDSKSSKSYVLLAKTLAETDRMAIVHFTLRNKTRLAALRVKDFGKREVMMVHTLLWPDEIRDPDFPVLDQKVEIKPAELKMAGQVVDSMADDFNPDRYHDTYQEQLQELIDTKLEGGQAFTAEDQPRLLDEPEDVSALLAKLEASVKARSKANSNVPTPP
modifications: biotinylated with NHS-LC-Biotin for BLI only
In turn, B5 had a Kd in data set [5] of 219 nM. Also, the “stoichiometry N” value in data set [6] is 2.

B6: Ku L251A (M. tuberculosis) (natural protein)
chain: MRAIWTGSIAFGLVNVPVKVYSATADHDIRFHQVHAKDNGRIRYKRVCEACGEVVDYRDLARAYESGDGQMVAITDDDIASLPEERSREIEVLEFVPAADVDPMMFDRSYFLEPDSKSSKSYVLLAKTLAETDRMAIVHFTLRNKTRLAALRVKDFGKREVMMVHTLLWPDEIRDPDFPVLDQKVEIKPAELKMAGQVVDSMADDFNPDRYHDTYQEQLQELIDTKLEGGQAFTAEDQPRLLDEPEDVSDALAKLEASVKARSKANSNVPTPP
modifications: biotinylated with NHS-LC-Biotin for BLI only
In turn, B6 displayed a Kd in data set [5] of 134 nM. Besides, the “stoichiometry N” value in data set [6] is 2.

B7: wildtype Ku (KuWT), Mycobacterium tuberculosis (natural protein)
chain: MRAIWTGSIAFGLVNVPVKVYSATADHDIRFHQVHAKDNGRIRYKRVCEACGEVVDYRDLARAYESGDGQMVAITDDDIASLPEERSREIEVLEFVPAADVDPMMFDRSYFLEPDSKSSKSYVLLAKTLAETDRMAIVHFTLRNKTRLAALRVKDFGKREVMMVHTLLWPDEIRDPDFPVLDQKVEIKPAELKMAGQVVDSMADDFNPDRYHDTYQEQLQELIDTKLEGGQAFTAEDQPRLLDEPEDVSDLLAKLEASVKARSKANSNVPTPP
modifications: biotinylated at multiple sites with NHS-LC-Biotin for BLI only (sites listed in Supplementary Table S3)
notes: The His tag is TEV-cleavable; Homodimer by SEC-MALS
As for B7, the Kd in data set [5] came out at 196 nM. For the same molecule, the “stoichiometry N” value in data set [6] came out at 2.

B8: Mycobacterium tuberculosis Ku D250A (natural protein)
chain: MRAIWTGSIAFGLVNVPVKVYSATADHDIRFHQVHAKDNGRIRYKRVCEACGEVVDYRDLARAYESGDGQMVAITDDDIASLPEERSREIEVLEFVPAADVDPMMFDRSYFLEPDSKSSKSYVLLAKTLAETDRMAIVHFTLRNKTRLAALRVKDFGKREVMMVHTLLWPDEIRDPDFPVLDQKVEIKPAELKMAGQVVDSMADDFNPDRYHDTYQEQLQELIDTKLEGGQAFTAEDQPRLLDEPEDVSALLAKLEASVKARSKANSNVPTPP
For B8, the “stoichiometry N” value in data set [4] amounted to 2.

B9: Ku S258A (M. tuberculosis) (natural protein)
chain: MRAIWTGSIAFGLVNVPVKVYSATADHDIRFHQVHAKDNGRIRYKRVCEACGEVVDYRDLARAYESGDGQMVAITDDDIASLPEERSREIEVLEFVPAADVDPMMFDRSYFLEPDSKSSKSYVLLAKTLAETDRMAIVHFTLRNKTRLAALRVKDFGKREVMMVHTLLWPDEIRDPDFPVLDQKVEIKPAELKMAGQVVDSMADDFNPDRYHDTYQEQLQELIDTKLEGGQAFTAEDQPRLLDEPEDVSDLLAKLEAAVKARSKANSNVPTPP
modifications: biotinylated with NHS-LC-Biotin for BLI only
For the molecule B9, binding in data set [5] was characterised by a dissociation constant (Kd) of 258 nM. Also, the “stoichiometry N” value in data set [6] is 2.

B10: Mycobacterium tuberculosis Ku R262A (natural protein)
chain: MRAIWTGSIAFGLVNVPVKVYSATADHDIRFHQVHAKDNGRIRYKRVCEACGEVVDYRDLARAYESGDGQMVAITDDDIASLPEERSREIEVLEFVPAADVDPMMFDRSYFLEPDSKSSKSYVLLAKTLAETDRMAIVHFTLRNKTRLAALRVKDFGKREVMMVHTLLWPDEIRDPDFPVLDQKVEIKPAELKMAGQVVDSMADDFNPDRYHDTYQEQLQELIDTKLEGGQAFTAEDQPRLLDEPEDVSDLLAKLEASVKAASKANSNVPTPP
As to B10, the “stoichiometry N” value in data set [4] was 2.

B11: Mycobacterium tuberculosis Ku S258A (natural protein)
chain: MRAIWTGSIAFGLVNVPVKVYSATADHDIRFHQVHAKDNGRIRYKRVCEACGEVVDYRDLARAYESGDGQMVAITDDDIASLPEERSREIEVLEFVPAADVDPMMFDRSYFLEPDSKSSKSYVLLAKTLAETDRMAIVHFTLRNKTRLAALRVKDFGKREVMMVHTLLWPDEIRDPDFPVLDQKVEIKPAELKMAGQVVDSMADDFNPDRYHDTYQEQLQELIDTKLEGGQAFTAEDQPRLLDEPEDVSDLLAKLEAAVKARSKANSNVPTPP
With B11, the “stoichiometry N” value in data set [4] was determined as 2.
